Results taken from US20260308262 (published 2026).

Biological target: CD161 (human)
Assay: other (literature value, Kamishikiryo et al 2011)

CD161 (human), sequence (chain, as listed by the source): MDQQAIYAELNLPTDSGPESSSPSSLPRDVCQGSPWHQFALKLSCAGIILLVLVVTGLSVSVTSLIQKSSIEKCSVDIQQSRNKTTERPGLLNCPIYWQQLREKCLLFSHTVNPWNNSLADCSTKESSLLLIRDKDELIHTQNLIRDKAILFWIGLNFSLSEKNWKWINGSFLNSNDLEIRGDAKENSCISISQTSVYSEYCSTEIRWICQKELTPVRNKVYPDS

B1: CLEC2D (protein)
chain: RANCHQEPSVCLQAACPESWIGFQRKCFYFSDDTKNWTSSQRFCDSQDADLAQVESFQELNFLLRYKGPSDHWIGLSREQGQPWKWINGTEWTRQFPILGAGECAYLNDKGASSARHYTERKWICSKSDIHV
- Kd: 48 µM
